Consider one protein from paper PMC4700666, “The structure of a prophenoloxidase (PPO) from Anopheles gambiae provides new insights into the mechanism of PPO activation” (BMC Biology, 2016).

The series deals with the molecule itself. Put plainly: SEC; size exclusion chromatography of purified AgPPO8 against standard proteins; eluted at a similar retention volume as bovine γ-globulin. (SEC sorts molecules by how far they enter the pores of the column.)

B1: Anopheles gambiae prophenoloxidase 8 (AgPPO8) (enzyme, UniProt Q8MZM3 1-700, looked up)
chain: MATLTQKFHGLLQHPLEPLFLPKNDGTLFYDLPERFLTSRYSPIGQNLANRFGPNSPASSQVSNDTGVPPTVVTIKDLDELPDLTFATWIKRRDSFSLFNPEHRKAAGKLTKLFLDQPNADRLVDVAAYARDRLNAPLFQYALSVALLHRPDTKSVSVPSLLHLFPDQFIDPAAQVRMMEEGSIVLDENRMPIPIPMNYTATDAEPEQRMAFFREDIGVNLHHWHWHLVYPASGPPDVVRKDRRGELFYYMHQQLLARYQIDRYAQGLGRIEPLANLREPVREAYYPKLLRTSNNRTFCPRYPGMTISDVARSADRLEVRIADIESWLPRVLEAIDAGFAVSDDGVRVPLDETRGIDVLGNILERSAISINRNLYGDVHNMGHVLLAFIHDPRGTYLESSGVMGGVATAMRDPIFYRWHKFIDNIFLRNKARLAPYTMAELSNSNVTLEALETQLDRAGGAVNSFVTFWQRSQVDLRAGIDFSAAGSAFVSFTHLQCAPFVYRLRINSTARSNRQDTVRIFLLPRQNEQGRPLSFEDRRLLAIELDSFRVNLRPGMNNIVRQSSNSSVTIPFERTFGNVEQANAGNAQSRFCGCGWPAHMLLPKGNANGVEFDLFAMVSRFEDDNANVNYDENAGCDDSYAFCGLRDRVYPSRRAMGFPFDRRASNGVRSVADFVAPYKNMRLATVTLRFMNTIIDRPTN
notes: Prophenoloxidase 8 (PPO8) of Anopheles gambiae, zymogen; cDNA amplified from a cDNA pool of second instar larvae; each subunit in the crystal comprises 700 residues (numbered 1-700; pro-region 17-81, domain I 1-16 and 82-196, domain II 197-435, domain III 436-697); Expressed as a SUMO fusion with an N-terminal 6xHis tag; also called A. gambiae PPO8; source: E. coli BL21 gold (DE3), purified …
In general, stoichiometry N refers to the number of molecules, sites or subunits per partner or assembly. For the protein B1, the “stoichiometry N” value came to 2.
